Protein stability index data for 36 sequences are collected here from the supplement of paper PMC10567573.

A short description of the data set: protein stability index of a GFP-peptide fusion (GPS, HEK-293T) (PSI 1-6); higher = more stable. The conditions noted are these: c terminus: a fixed tail appended.

± gives the standard deviation.
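Note: 24-mer peptide tiles fused after GFP, lentivirally expressed, FACS-sorted into six equal bins by GFP/DsRed ratio, decoded by Illumina sequencing, PSI is the read-weighted mean bin number.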

As to RRERELERRELAVEQGERALERRR [ZBED3], the protein stability index is, setting by setting: (treatment: DMSO) 5.03 ± 0.44; (treatment: MLN4924 1 uM, 8 h) 5.18 ± 0.63.

For RRHLQFWKSHLKKVQKPLLQAPFL [RHOBTB1], the protein stability index came out at 2.14 ± 0.51 (treatment: DMSO) and 1.59 ± 0.26 (treatment: MLN4924 1 uM, 8 h).

As for RRKDVCQAIDHGCEHICVNSDDSY [MATN2], the protein stability index reads like this: (treatment: DMSO) 4.34 ± 0.22; (treatment: MLN4924 1 uM, 8 h) 4.53 ± 0.33.

On to RRLGNGVSDDLSSEEDGEARTQMI [PHTF1], for which the protein stability index came to 5.38 ± 0.2 (treatment: DMSO) and 5.21 ± 0.23 (treatment: MLN4924 1 uM, 8 h).

Consider RRLLSYCKGRDHGVLDALHVLEGL [ZSWIM9], for which the protein stability index runs as follows: (treatment: DMSO) 2.03 ± 0.21; (treatment: MLN4924 1 uM, 8 h) 2.16 ± 0.3.

For RRPSPVLRHLELLDEFARENIDSL [SCNN1D], the protein stability index worked out at 3.31 ± 0.51 (treatment: DMSO) and 3.56 ± 0.38 (treatment: MLN4924 1 uM, 8 h).

Take RRQCRPEIRMWQTREKAKFSDGEK [PHTF1]: the protein stability index stood at 3.87 ± 0.29 (treatment: DMSO) and 4.23 ± 0.051 (treatment: MLN4924 1 uM, 8 h).

With RSCTPNAEVRHEIQDGTIHLYIYS [KMT2E], the protein stability index runs as follows: (treatment: DMSO) 2.1 ± 0.33; (treatment: MLN4924 1 uM, 8 h) 2.57 ± 0.33.

Sequence RSEPIRPIDPAAWVSHTAAMTGTF [DVL3] yielded a protein stability index (treatment: DMSO) of 2.99 ± 0.09 and a protein stability index (treatment: MLN4924 1 uM, 8 h) of 3.04 ± 0.23.

RSGGPPPKKSAPSAVARSNSWMGS [RBMY1A1]: the protein stability index reads like this: (treatment: DMSO) 3.7 ± 0.27; (treatment: MLN4924 1 uM, 8 h) 3.64 ± 0.22.

For the sequence RSSSESKLPSSGSGKRLSGVSSVD [RIPK4], the protein stability index came to 5.03 ± 0.19 (treatment: DMSO) and 5.07 ± 0.26 (treatment: MLN4924 1 uM, 8 h).

Turning to RTRRLGNMKNGANDVKHHRWFRSV [PRKX], the protein stability index is, setting by setting: (treatment: DMSO) 3.17 ± 0.39; (treatment: MLN4924 1 uM, 8 h) 3.14 ± 0.38.

Consider RTSPSCAFRSDDTKGHPRAVSQPF [CDC14A], for which the protein stability index is, setting by setting: (treatment: DMSO) 3.57 ± 0.22; (treatment: MLN4924 1 uM, 8 h) 3.62 ± 0.37.

Turning to RTTVHDKSAHQTHSSWTPPNAQYW [DNAJC4], the protein stability index runs as follows: (treatment: DMSO) 2.99 ± 0.32; (treatment: MLN4924 1 uM, 8 h) 3.02 ± 0.33.

On to RVFQNRFSTQYRCFSVSMLAGPND [UFD1], for which the protein stability index turned out to be 2.38 ± 0.34 (treatment: DMSO) and 2.3 ± 0.26 (treatment: MLN4924 1 uM, 8 h).

For RVLLTGLHAVADIHCENCKTTLGW [YPEL3], the protein stability index runs as follows: (treatment: DMSO) 2.42 ± 0.69; (treatment: MLN4924 1 uM, 8 h) 2.27 ± 0.29.

For RVVCGIDSSMILTVPGQALACGSN [NEK8], the protein stability index stood at 2.73 ± 0.12 (treatment: DMSO) and 2.52 ± 0.29 (treatment: MLN4924 1 uM, 8 h).

On to RYEEANNNQYSEGVQREAQRIALR [KMT2E], for which the protein stability index worked out at 4.3 ± 0.25 (treatment: DMSO) and 4.59 ± 0.2 (treatment: MLN4924 1 uM, 8 h).

For RYFSAWAEDDHMLIQNEYRNGGSL [WEE1], the protein stability index is, setting by setting: (treatment: DMSO) 2.67 ± 0.5; (treatment: MLN4924 1 uM, 8 h) 2.32 ± 0.4.

RYLAVLESPIPEDKDRRFVFSYFL [EFHC1]: the protein stability index is, setting by setting: (treatment: DMSO) 2.37 ± 0.38; (treatment: MLN4924 1 uM, 8 h) 2.25 ± 0.85.

In turn, RYNRKYLMCGGIAFWSLVTLGSSF [SPNS1] showed a protein stability index (treatment: DMSO) of 2.68 ± 0.88 and a protein stability index (treatment: MLN4924 1 uM, 8 h) of 2.77 ± 0.96.

For RYTQGTGGDEVDDSVSVNDIDLSL [ZC3H15], the protein stability index runs as follows: (treatment: DMSO) 5.27 ± 0.29; (treatment: MLN4924 1 uM, 8 h) 4.89 ± 0.13.

In turn, SAESSGCNSHMPYGYAAQARARER [KCNA4] gave a protein stability index (treatment: DMSO) of 4.43 ± 0.35 and a protein stability index (treatment: MLN4924 1 uM, 8 h) of 4.63 ± 0.2.

Consider SAGRSMPEASDQEEHLSPLDFLHS [RNF180], for which the protein stability index is 5.07 ± 0.12 (treatment: DMSO) and 4.88 ± 0.28 (treatment: MLN4924 1 uM, 8 h).

As for SAQAPPDSISLHQPCNPPAPAGDK [DMRTC1], the protein stability index by setting is: (treatment: DMSO) 5.38 ± 0.13; (treatment: MLN4924 1 uM, 8 h) 5.28 ± 0.28.

For the sequence SASSTGDLPKAKTRAADLLVNPLD [SRPK2], the protein stability index is, setting by setting: (treatment: DMSO) 4.97 ± 0.29; (treatment: MLN4924 1 uM, 8 h) 4.99 ± 0.33.

Regarding SCDLPEERYRHEIAHDGQRIYVLG [KLHDC10], the protein stability index amounted to 3.81 ± 0.17 (treatment: DMSO) and 3.75 ± 0.25 (treatment: MLN4924 1 uM, 8 h).

Consider SCTVTTVQPMDRLPYQHFSAHFTS [TBX5], for which the protein stability index worked out at 2.23 ± 0.15 (treatment: DMSO) and 2.31 ± 0.17 (treatment: MLN4924 1 uM, 8 h).

With SDDEMELEETEPPLEPEDALSDAE [P3H4], the protein stability index amounted to 5.5 ± 0.27 (treatment: DMSO) and 5.59 ± 0.24 (treatment: MLN4924 1 uM, 8 h).

For SDDHIRVIVQLHKLRHLDISRDRL [ZER1], the protein stability index by setting is: (treatment: DMSO) 2.38 ± 0.18; (treatment: MLN4924 1 uM, 8 h) 2.53 ± 0.11.

Take SDEDDEEERRRRVFDVPIRRRRCS [FBXO3]: the protein stability index is, setting by setting: (treatment: DMSO) 5.41 ± 0.32; (treatment: MLN4924 1 uM, 8 h) 5.42 ± 0.27.

As to SDGRQDSPAGELPKTVQQPTESEP [MATN2], the protein stability index was found to be 5.51 ± 0.24 (treatment: DMSO) and 5.57 ± 0.35 (treatment: MLN4924 1 uM, 8 h).

With SDPETKDFWLNMAALTEALQRQAE [FCHO1], the protein stability index is, setting by setting: (treatment: DMSO) 3.29 ± 0.22; (treatment: MLN4924 1 uM, 8 h) 3.23 ± 0.32.

Take SDSVHIEDAEAVEQLREALHEALL [ESRRA]: the protein stability index reads like this: (treatment: DMSO) 3.09 ± 0.42; (treatment: MLN4924 1 uM, 8 h) 3.29 ± 0.34.

On to SDTESTDLPSSTPVANSGTKPKTT [DLC1], for which the protein stability index came out at 5.47 ± 0.26 (treatment: DMSO) and 5.49 ± 0.22 (treatment: MLN4924 1 uM, 8 h).

In turn, SDVHPVALNFMKGCLKMNPDDRLT [CDKL4] yielded a protein stability index (treatment: DMSO) of 3.55 ± 0.27 and a protein stability index (treatment: MLN4924 1 uM, 8 h) of 3.49 ± 0.18.
